In patent US20210070883A1 (AQUALUNG THERAPEUTICS, published 2021):
Residue numbers refer to the chain shown, from its start.

B1: 1093 humanized anti-hNAMPT antibody NN-1093 (antibody, V domains shown)
VH: QVQLVQSGAEVTKPGASVKVSCKASGYTFTSYWMHWVRQAPGQGLEWVGEIDPSDSYTNYNQKFKGRVTLTRDTSTTTVYMELSSLRSEDTAVYYCAKSNYVVPWYFDVWGQGTTVTVSS
VL: EIVLTQSPATLSLSPGERATLSCRSSKSLLHSNGITYLYWYQQKPGQAPRLLIYQMSNLASGIPARFSGSGSGTDFTLTISSLEPEDFAVYYCAQNLELPWTFGGGTKLEIK
notes: Humanized from AL-310; it was detected with a goat anti-human antibody
B2: 1076 humanized anti-hNAMPT antibody K-1076 (antibody, V domains shown)
VH: QVQLVQSGAEVKKPGASVKVSCKASGYTFTSYWMQWVRQAPGQGLEWMGEIDPSNSYTNYNQKFRGRVTMTTDTSTSTAYMELRSLRSDDTAVYYCARGGYWGQGTTVTVSS
VL: DIVMTQSPLSLPVTPGEPASISCRSSKSLLHSQGITYLYWYLQKPGQSPQLLIYQLSNRASGVPDRFSGSGSGTDFTLKISRVEAEDVGVYYCVQNLELPYTFGGGTKLEIK
notes: also called Ab-1076-HC2-LC5
B3: murine anti-hNAMPT antibody AL-303 (antibody, V domains shown)
VH: QVQLQQPGADLVKPGASVKLSCKASGYTFTSYWMQWVKQRPGQGLEWIGEIDPSNSYTNYNQKFRGKATLTVDPSSSTAYMQLSSLTSEDSAVYYCARGGYWGQGTTLTVSS
VL: DIVMTQAAFSNPVTLGTSASISCRSSKSLLHSNGITYLYWYLQKPGQSPQLLIYQMSNLASGVPDRFSSSGSGTDFTLRISRVEAEDVGVYYCVQNLELPYTFGGGTKLEIK
notes: Murine monoclonal antibody
B4: murine anti-NAMPT antibody AL-304 (antibody, V domains shown)
VH: B3 VH
VL: B3 VL
B5: murine anti-NAMPT antibody AL-310 (antibody, V domains shown)
VH: QVQLQQSGAESVMPGASVKLSCKASGYTFTSYWMHWVKQRPGQGLEWIGEIDPSDSYTNYNQKFKGKSTLTVDKSSSTAYMQLSSLTSEDSAVYYCAKSNYVVPWYFDVWGTGTTVTVSS
VL: B3 VL with V94A, Y101W
notes: Murine monoclonal antibody; also called AL-310mAb

What was measured:
[1] = molecular target: T1, human nicotinamide phosphoribosyltransferase (NAMPT) (human, UniProt P43490 1-491); assay: told with the Pepscan epitope mapping; assay for the dimer not described
T1 construct: Recombinant hNAMPT was bought (MBL International); In the Western blots the protein was recombinant or in HPAEC lysate; also called hNAMPT; recombinant hNAMPT
T1 sequence (P43490 whole entry): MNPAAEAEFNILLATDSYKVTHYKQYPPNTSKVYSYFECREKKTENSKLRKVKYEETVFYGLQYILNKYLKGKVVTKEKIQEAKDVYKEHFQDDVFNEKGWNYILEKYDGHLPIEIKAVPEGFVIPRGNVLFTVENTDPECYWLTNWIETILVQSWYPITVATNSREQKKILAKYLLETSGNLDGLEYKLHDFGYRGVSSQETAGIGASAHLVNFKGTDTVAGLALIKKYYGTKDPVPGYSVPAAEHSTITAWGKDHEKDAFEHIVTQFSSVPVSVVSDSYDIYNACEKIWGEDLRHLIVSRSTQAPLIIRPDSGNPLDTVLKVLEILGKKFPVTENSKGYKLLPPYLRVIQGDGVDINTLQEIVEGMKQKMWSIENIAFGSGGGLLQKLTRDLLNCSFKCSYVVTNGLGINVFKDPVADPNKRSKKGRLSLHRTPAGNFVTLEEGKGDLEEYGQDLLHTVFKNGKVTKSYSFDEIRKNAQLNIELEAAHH

[2] = molecular target: T1, human nicotinamide …; assay: Western blot on recombinant hNAMPT and HPAEC cell lysate, exposures of 30 sec and 5 min
mouse NAMPT = molecular target: T2, mouse NAMPT (mouse, UniProt Q99KQ4 1-491, limits assumed); assay: Western blot on recombinant mNAMPT and mouse lung lysates (SB, LPS, VILI), exposures of 30 sec and 5 min
T2 construct: Recombinant mNAMPT; also called mNAMPT; recombinant mouse NAMPT
T2 sequence (Q99KQ4 whole entry): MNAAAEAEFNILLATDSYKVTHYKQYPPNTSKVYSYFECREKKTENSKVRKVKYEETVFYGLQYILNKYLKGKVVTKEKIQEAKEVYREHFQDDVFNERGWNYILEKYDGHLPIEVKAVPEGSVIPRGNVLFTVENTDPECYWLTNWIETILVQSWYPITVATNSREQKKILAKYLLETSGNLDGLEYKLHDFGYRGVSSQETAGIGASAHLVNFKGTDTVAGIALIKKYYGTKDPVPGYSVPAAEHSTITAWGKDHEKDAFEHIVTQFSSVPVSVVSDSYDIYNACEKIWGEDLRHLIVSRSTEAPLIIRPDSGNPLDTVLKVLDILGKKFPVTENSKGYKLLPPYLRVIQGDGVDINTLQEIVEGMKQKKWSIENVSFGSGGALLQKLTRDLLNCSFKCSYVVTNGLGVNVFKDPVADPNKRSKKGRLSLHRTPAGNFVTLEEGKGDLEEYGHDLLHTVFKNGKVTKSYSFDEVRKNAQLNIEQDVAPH

Binder	binding result [1]	binding result [2]	binding result (mouse NAMPT)
B1	binds		
B2	binds		
B3		binds	binds
B4		binds	binds
B5		binds	no binding
